Measured values published in US20110105733A1 (Ablynx, published 2011).
One block for each binder: values may come before it.

Tests used:
[1] = target: human Notch-2 (R&D Systems Cat #3735-NT-050), Notch-2-Fc fusion (human) (UniProt Q04721); test: ELISA: human Notch-2 coated at 2 ug/mL, Nanobody series 25 pM-2000 nM, detection by rabbit anti-VHH and DAMPO, OD 490 nm
[2] = target: T1, recombinant human Notch-1/Fc Chimera (R&D Systems Cat No 3647-TK) (human, UniProt P46531 19-526); test: ELISA: human Notch-1 coated at 2 ug/mL, Nanobody series 25 pM-2000 nM, detection by rabbit anti-VHH and DAMPO, OD 490 nm
T1 construct: Bought reagent; also called rhNotch-1/hFc; rhNotch-1; not shown: human Fc (hFc)
Procedure: (§1) After washing, the plate was blocked using 4% Marvel skimmed milk in PBS for 30 minutes on shaker. A concentration series of the Nanobodies in Table B-5 (25 pM to 2000 nM) was added in 100 microliter 2% Marvell/PBS and incubated for 1 h on shaker. After washing the Nanobodies were detected with 100 microliter 1:2500 R-anti-VHH (1:2500) in 2% Marvell/PBS and 100 microliter 1:5000 DAMPO in 2% Marvell/PBS for 1 h on shaker. PO was detected with 100 microliter OPD and stopped with 50 microliter H2SO4. Quantification was performed at 490 nm in a plate reader.

human Notch-3 = target: T2, human Notch-3 (human, UniProt Q9UM47 40-467, limits assumed); test: ELISA: human Notch-3 coated at 2 ug/mL, Nanobody series 25 pM-2000 nM, detection by rabbit anti-VHH and DAMPO, OD 490 nm
T2 construct: Construct not described
T2 sequence (looked up): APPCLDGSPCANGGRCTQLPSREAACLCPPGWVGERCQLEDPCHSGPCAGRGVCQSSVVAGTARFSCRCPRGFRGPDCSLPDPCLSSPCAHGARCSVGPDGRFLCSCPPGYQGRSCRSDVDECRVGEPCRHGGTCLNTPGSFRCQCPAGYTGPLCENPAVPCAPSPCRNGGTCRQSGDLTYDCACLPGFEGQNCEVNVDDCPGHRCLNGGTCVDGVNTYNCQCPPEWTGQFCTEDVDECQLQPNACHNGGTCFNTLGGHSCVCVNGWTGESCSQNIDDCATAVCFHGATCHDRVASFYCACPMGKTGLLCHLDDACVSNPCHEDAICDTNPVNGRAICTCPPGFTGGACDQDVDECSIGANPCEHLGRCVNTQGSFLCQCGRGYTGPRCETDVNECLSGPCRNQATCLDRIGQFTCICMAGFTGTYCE
Procedure: as §1

[3] = target: T3, rat Jagged-1 (rrJagged-1, R&D Systems Cat #599-JG) (rat, UniProt Q63722 34-1067); test: ELISA: rat Jagged-1 (rrJagged-1) coated at 2 ug/mL, Nanobody series, detection by mouse anti-Myc tag and DAMPO, OD 490 nm
T3 construct: extracellular domain; Bought reagent; also called non-biotinylated Jagged-1; cold-jagged1
Procedure: Two rounds of phage display selection were performed similarly as described above. Binding assays were performed. In short: Maxisorp plate was coated with 100 ul 2 ug/ml of rrJagged-1 (R&D systems) in PBS O/N at 4 C. After washing the plate 4× with PBS the plate was blocked with 4% Marvel in PBS for 30 minutes on shaker. A concentration series of Nanobody (1-1000 nM) was added in 100 ul 2% Marvell/PBS and incubate for 1 hour on shaker. After washing the plate 4× with PBS the Nanobodies were detected with 100 ul 1:5000 Mouse-anti-MycTag in 2% Marvell/PBS for 1 hour and 100 ul 1:5000 DAMPO in 2% Marvell/PBS for 1 hour. After washing the DAMPO was detected with 100 ul OPD, stopped with 50 ul H2SO4 and quantification was performed at 490 nm in a plate reader.

[4] = target: T1, recombinant human Notch-1/Fc Chimera …; test: ELISA: human Notch-1/Fc coated at 2 ug/mL, Nanobody series, detection by mouse anti-Myc tag and DAMPO, OD 490 nm
Procedure: After washing the plate was blocked using 4% Marvel skimmed milk in PBS for 30 minutes on shaker. A concentration series of Nanobody (1 to 1000 nM) was added in 100 microliter 2% Marvell/PBS and incubated for 1 h on shaker. […] PO was detected with 100 microliter OPD and stopped with 50 microliter H2SO4. Quantification was performed at 490 nm in a plate reader.

[5] = target: T4, human DLL4 (rhDLL4, R&D Systems Cat #1506-D4-050) (human, UniProt Q9NR61 27-529); test: ELISA: rhDLL4 coated at 5 ug/mL, Nanobody series, detection by mouse anti-Myc tag (9E10) and DAMPO, OD 490 nm
T4 construct: extracellular domain; Bought reagent
T4 sequence (Q9NR61 27-529): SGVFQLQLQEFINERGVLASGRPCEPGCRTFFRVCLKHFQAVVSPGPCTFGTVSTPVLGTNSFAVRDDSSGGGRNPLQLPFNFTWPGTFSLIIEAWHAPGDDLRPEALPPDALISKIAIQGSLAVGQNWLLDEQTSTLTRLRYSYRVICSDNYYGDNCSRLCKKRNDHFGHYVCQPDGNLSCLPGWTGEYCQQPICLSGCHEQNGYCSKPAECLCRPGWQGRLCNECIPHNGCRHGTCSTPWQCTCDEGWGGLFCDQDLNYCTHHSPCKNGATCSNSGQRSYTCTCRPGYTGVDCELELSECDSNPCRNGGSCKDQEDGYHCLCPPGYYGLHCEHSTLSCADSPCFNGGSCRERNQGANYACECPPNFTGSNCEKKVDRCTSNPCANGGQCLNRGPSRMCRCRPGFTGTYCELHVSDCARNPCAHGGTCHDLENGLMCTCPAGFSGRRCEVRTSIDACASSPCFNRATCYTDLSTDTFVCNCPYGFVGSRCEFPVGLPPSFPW
Procedure: Two rounds of phage display selection were performed similarly as described above. Binding assays were performed. In short: Maxisorp plate was coated with 100 ul 5 ug/ml of rhDLL4 (R&D systems) in PBS O/N at 4° C. After washing the plate was blocked with 4% MPBS for 30 minutes hour on shaker. A concentration series of Nanobody (1-1000 nM) was added in 100 ul 2% Marvell/PBS and incubate for 1 hour on shaker. Nanobody was detected with 100 ul 1:5000 Mouse-anti-MycTag (9E10) in 2% Marvell/PBS and with 100 ul 1:5000 DAMPO in 2% Marvell/PBS for 1 hour on shaker. After washing PO was detected with 100 ul OPD and stopped with 50 ul H2SO4. Quantification was performed at 490 nm in a plate reader.

EC50 (read off the curve) [1]: 2 nM | binding result [2]: no binding (tested: 2000 nM) | binding result (human Notch-3): no binding (tested: 2000 nM)
B1: 181B3 (VHH)
VHH: EVQLVESGGGLVQAGGSLRLSCVVSGSILSINTMDWYRQAPGKQREWFAGLSDGGRANYADSVKDRFTIARDNAKNTVYLQMNSLKPGDTAIYYCAADLWDRGATTGRYWGQGTQVTVSS
notes: detection there was with anti-VHH

binding result [2]: no binding (tested: 2000 nM) | binding result (human Notch-3): no binding (tested: 2000 nM)
B2: 181E3 (VHH)
VHH: EVQLVESGGGLVQPGGSLRLSCAASGFTFGDYAMNWVRQAPGKGLEWVSSISAGGYSTTYADSVKGRFTISRDNAKNTLYLQMNSLNPEDTAVYYCARGDWRYGSRGQGTQVTVSS
notes: Nanobody against human Notch-2, 'generated as above'

EC50 (read off the curve) [3]: ~20 nM
B3: 178A7 (VHH)
VHH: EVQLVESGGGLVQPGGSLRLSCATSGVIFSTAAMGWYRQAPGKSRVLVARMFSDGRTIYAESVKRRFTISRDNAKNTVYLQMNSLEPEDTAVYYCNALQFGAVYWGQGTQVTVSS
notes: Nanobody against rat Jagged-1; not shown: C-terminal c-myc tag and His6 tag coded by vector pAX50

EC50 (read off the curve) [4]: ~20 nM
B4: 180F4 (VHH)
VHH: EVQLVESGGGLVQAGDSLRLSCAVSGGSFSSYTMGWVRQAPGKEREAVASIWRSGGNTYYADSVKGRFTVSRDNAKHTVYLQMNSLKPEDTAVYYCAAASFAPGSRGYDYWGQGTQVTVSS

EC50 (read off the curve) [4]: ~7 nM
B5: 180A4 (VHH)
VHH: EVQLVESGGGLVQPGGSLRLSCAASGRTSSPIAMGWFRQAPGKEREFVSGITWSGAYTHYANSVKGRFTISRDSAKNTVYLQMNSLKPEDTAVYYCTTATNSTTGYDYWGQGTQVTVSS

binding result [5]: binds
B6: 179F6 (VHH)
VHH: EVQLVESGGGLVQAGGSLRLSCAASGSDFSGFLLGWYRQPPGKQRELIAQTTDGGRTNYGDSVKGRFTISRDNAKNTWYLQMDSLKPEDTGVYYCNTFPLTSWGQGTQVTVSS
notes: Nanobody against human DLL4; not shown: C-terminal c-myc tag and His6 tag coded by vector pAX50

EC50 (read off the curve) [1]: 5 nM | binding result [2]: no binding (tested: 2000 nM) | binding result (human Notch-3): no binding (tested: 2000 nM)
B7: 181D3 (VHH)
VHH: EVQLVESGGGLVQAGGSLRLSCAASTNVSSFNTMSWYRQSPRKQREWVATITDGDNTHYADSVKGRFTTSRDNAKNLLYLQMNSLKPEDTAVYYCTGWRATSGGSYGQGTQVTVSS
notes: as for B2

binding result [2]: no binding (tested: 2000 nM) | binding result (human Notch-3): no binding (tested: 2000 nM)
B8: 4H2 (VHH)
VHH: EVQLVESGGGLVQAGGSLRLSCATSGFTFSRFDMSWFRQAPGKQREFIATIFSGGDTDYIDSVKGRFTISRDNAKNTVYLQMNSLKPEDTAVYYCCPLGIEYAWGQGTQVTVSS

EC50 (read off the curve) [4]: ~20 nM
B9: 180C1 (VHH)
VHH: EVQLVESGGDLVQPGGSLRLSCAASRTVFSISDMGWSRQAPGKERELVASISSDNYTVYADAAKGRFTISRDNSKNTVYLEMNSLKPDDTAVYYCRVVDPLRGKLYWGQGTQVTVSS

EC50 (read off the curve) [4]: ~6 nM
B10: 180B3 (VHH)
VHH: EVQLVESGGDLVQPGGSLRLSCAASGTVFSNNDMGWSRQAPGKERELVASFTSGGNTVYADAAKGRFTISRDNSKNTVYLEMNSLKPDDTAVYYCRVVDLLRGKLYWGQGTQVTVSS

EC50 (read off the curve) [2]: 10 to 16 nM | binding result (human Notch-3): no binding (tested: 2000 nM)
B11: 180F8 (VHH)
VHH: EVQLVESGGDLVQPGGSLRLSCTTSGTVFSINDMGWSRQAPGKGRELVASISSEGTTIYADAAKGRFTISRDNSKNTVYLEMNSLKPDDTAVYYCRVVDPLRGKLYWGQGTQVTVSS
notes: Nanobody against human Notch-1

EC50 (read off the curve) [4]: ~5 nM
B12: 180F10 (VHH)
VHH: EVQLVESGGDLVQPGGSLRLSCAASATVFSNSDMGWSRQAPGKERELVASITTDGNTLYADAAKGRFAIYRDNSKNTVYLEMNSLKPDDTAVYYCRVVDLLRGKLYWGQGTQVTVSS

EC50 (read off the curve) [1]: 5 nM | binding result [2]: no binding (tested: 2000 nM) | binding result (human Notch-3): no binding (tested: 2000 nM)
B13: 181D2 (VHH)
VHH: EVQLVESGGGLVQPGGSLRLSCAASGRINSMNWYRQAPGKEREWVASITSSGTTIYADSVKGRITISEDNAKNTVYLQMNSLKTEDTGVYYCAANLRNARGSYYGQGTQVTVSS
notes: as for B2

binding result [5]: binds
B14: 179D12 (VHH)
VHH: EVQLVESGGGLVQAGGSLRLSCVASGDTSEIYDMGWFRQAPGKEREFVSSIHWGGRGTNYTDSVKGRFTISKDNAKNMVYLQMNSLKPEDTAVYYCAATRLIVYTPTGFRQYFDWGQGTQVTVSS
notes: as for B6

binding result [5]: binds
B15: 179A10 (VHH)
VHH: EVQLVESGGGLVQAGGSLRLSCVASGDTSEIYDMGWFRQAPGKEREFVSSIHWGGRGTNYTDSVKGRFTISKDNAKNMVHLQMNSLKPEDTAVYYCAATRLIVYTPTGFRQYFDWGQGTQVTVSS
notes: as for B6

binding result [5]: binds
B16: 179E6 (VHH)
VHH: EVQLVESGGGLVQAGGSLRLSCIASGDTSEIYDMGWFRQAPGKEREFVSSIHWRGRGTNYTDSVEGRFTISKDNAKNMVYLQMNSLKPEDTAVYYCAATRLIVYTPTGFRQYFDWGQGAQVTVSS
notes: as for B6

EC50 (read off the curve) (human Notch-3): ~2 nM
B17: 50C4 (VHH)
VHH: EVQLVESGGDLVQPGGSLRLSCAASGFTFSTYYMSWVRQAPGKGLEWVSGIYSDGSNTYYADSVKGRFTISRDNAKNTLYLQMNSLKSEDTAVYYCTRPVVVAGSPVSYEYDYIGQGTQVTVSS
notes: Nanobody against human Notch-3

EC50 (read off the curve) (human Notch-3): ~2 nM
B18: 50H9 (VHH)
VHH: EVQLVESGGDLVQPGGSLRLSCAASGFTFSTYYMSWVRQAPGKGLEWVSGIYSDGSNTYYADSVKGRFTISRDNAKNTLYLQMNSLKSEDTAVYYCTRPVVVAGSPVSYEYDYIGQGTQVTVSS
notes: as for B17

binding result [5]: binds
B19: 179F7 (VHH)
VHH: EVQLVESGGGLVQSGGSLSLSCAASGSVLRINDMGWYRQAPGKTREMVATITRSGVLNYTDSVKGRFTVSRDDAKNTVYLQMSSLKPEDTAVYSCFANIVIRSSGYFNRYWGQGTLVTVSS
notes: as for B6
